Measured values taken from US20200199241A1 (Chugai, published 2020).

B1: antibody with VH3-IgG1-F821 heavy chain and L(WT)-CK light chain (antibody)
heavy: QVQLQESGPGLVKPSETLSLTCAVSGHSISHDHAWSWVRQPPGEGLEWIGFISYSGITNYNPSLQGRVTISRDNSKNTLYLQMNSLRAEDTAVYYCARSLARTTAMDYWGEGTLVTVSSASTKGPSVFPLAPSSKSTSGGTAALGCLVKDYFPEPVTVSWNSGALTSGVHTFPAVLQSSGLYSLSSVVTVPSSSLGTQTYICNVNHKPSNTKVDKKVEPKSCDKTHTCPPCPAPELRGGPKVFLFPPKPKDTLYISRTPEVTCVVVDVSHEDPEVKFNWYVDGVEVHNAKTKPREEQYNSTYRVVSVLTVLHQDWLNGKEYKCKVSNKALPAPIEKTISKAKGQPREPQVYTLPPSRDELTKNQVSLTCLVKGFYPSDIAVEWESNGQPENNYKTTPPVLDSDGSFFLYSKLTVDKSRWQQGNVFSCSVMHEALHYHYTQKSLSLSP
light: not shown
notes: L235R/S239K/M252Y/N434Y; copies: 2 + 2
B2: VH3-IgG2-F890/L(WT)-CK (antibody)
heavy: QVQLQESGPGLVKPSETLSLTCAVSGHSISHDHAWSWVRQPPGEGLEWIGFISYSGITNYNPSLQGRVTISRDNSKNTLYLQMNSLRAEDTAVYYCARSLARTTAMDYWGEGTLVTVSSASTKGPSVFPLAPCSRSTSESTAALGCLVKDYFPEPVTVSWNSGALTSGVHTFPAVLQSSGLYSLSSVVTVPSSNFGTQTYTCNVDHKPSNTKVDKTVERKCCVECPPCPAPPVAGPSVFLFPPKPKDTLYISRTPEVTCVVVDVSHEDPEVQFNWYVDGVEVHNAKTKPREEQFNSTFRVVSVLTVVHQDWLNGKEYKCKVSNKGLPAPIEKTISKTKGQPREPQVYTLPPSREEMTKNQVSLTCLVKGFYPSDIAVEWESNGQPENNYKTTPPMLDSDGSFFLYSKLTVDKSRWQQGNVFSCSVMHEALHYHVTQKSLSLSP
light: not shown
notes: M252Y/N434Y/Y436V in VH3-IgG2; copies: 2 + 2
B3: VH3-IgG2/L(WT)-CK (antibody)
heavy: QVQLQESGPGLVKPSETLSLTCAVSGHSISHDHAWSWVRQPPGEGLEWIGFISYSGITNYNPSLQGRVTISRDNSKNTLYLQMNSLRAEDTAVYYCARSLARTTAMDYWGEGTLVTVSSASTKGPSVFPLAPCSRSTSESTAALGCLVKDYFPEPVTVSWNSGALTSGVHTFPAVLQSSGLYSLSSVVTVPSSNFGTQTYTCNVDHKPSNTKVDKTVERKCCVECPPCPAPPVAGPSVFLFPPKPKDTLMISRTPEVTCVVVDVSHEDPEVQFNWYVDGVEVHNAKTKPREEQFNSTFRVVSVLTVVHQDWLNGKEYKCKVSNKGLPAPIEKTISKTKGQPREPQVYTLPPSREEMTKNQVSLTCLVKGFYPSDIAVEWESNGQPENNYKTTPPMLDSDGSFFLYSKLTVDKSRWQQGNVFSCSVMHEALHNHYTQKSLSLSP
light: not shown
notes: copies: 2 + 2

Columns and labels:
[1] = molecular target: T1, human FcRn (soluble human FcRn complexed with β2-microglobulin) (human, UniProt P61769 21-119, limits assumed); assay: SPR, antibody captured by Protein L, human FcRn as analyte, pH 7.0, 25 C
T1 construct: also called hFcRn

mouse FcγRIV = molecular target: T2, mouse FcγRIV (mouse, UniProt A0A0B4J1G0 21-203); assay: SPR, antibody captured by Protein L, mouse FcγR as analyte, pH 7.4, 25 C
T2 construct: bought; also called mFcgRIV; mFcgR IV; the vendor's purification tag not given
T2 sequence: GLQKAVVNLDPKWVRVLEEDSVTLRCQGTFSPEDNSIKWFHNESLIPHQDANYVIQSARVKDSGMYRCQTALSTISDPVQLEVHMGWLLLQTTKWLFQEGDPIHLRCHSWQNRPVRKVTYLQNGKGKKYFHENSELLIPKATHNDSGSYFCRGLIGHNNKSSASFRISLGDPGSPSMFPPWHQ

mouse FcγRI = molecular target: T3, mouse FcγRI (mouse, UniProt P26151 25-297); assay: as above
T3 construct: bought; also called mFcgRI; mFcgR 1
T3 sequence (looked up): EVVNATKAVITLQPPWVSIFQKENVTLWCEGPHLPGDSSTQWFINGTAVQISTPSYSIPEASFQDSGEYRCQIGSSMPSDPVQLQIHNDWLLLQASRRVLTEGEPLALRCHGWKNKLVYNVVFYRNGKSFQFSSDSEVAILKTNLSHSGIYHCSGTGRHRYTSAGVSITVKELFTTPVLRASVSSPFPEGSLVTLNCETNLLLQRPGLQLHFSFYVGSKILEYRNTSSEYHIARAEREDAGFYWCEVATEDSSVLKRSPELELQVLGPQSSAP

mouse FcγRIIb = molecular target: T4, mouse FcγRIIb (mouse, UniProt P08101 30-207, limits assumed); assay: as above
T4 construct: bought; also called mFcgRIIb; mFcgR IIb
T4 sequence (looked up): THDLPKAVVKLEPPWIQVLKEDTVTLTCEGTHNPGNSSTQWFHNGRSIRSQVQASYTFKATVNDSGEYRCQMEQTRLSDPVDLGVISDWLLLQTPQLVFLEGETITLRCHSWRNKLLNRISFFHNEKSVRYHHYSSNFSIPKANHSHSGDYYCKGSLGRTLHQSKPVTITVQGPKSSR

mouse FcγRIII = molecular target: T5, mouse FcγRIII (mouse, UniProt P08508 31-215); assay: as above
T5 construct: bought; also called mFcgRIII; mFcgR III
T5 sequence (looked up): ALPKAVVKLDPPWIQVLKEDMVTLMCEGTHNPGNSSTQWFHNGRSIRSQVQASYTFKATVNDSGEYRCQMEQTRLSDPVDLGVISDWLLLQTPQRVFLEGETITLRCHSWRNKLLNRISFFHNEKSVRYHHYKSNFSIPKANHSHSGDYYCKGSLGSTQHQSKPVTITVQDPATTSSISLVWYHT

human FcγRIa = molecular target: T6, human FcγRIa (human, UniProt P12314 16-292, limits assumed); assay: SPR, pH 7.4, antibody captured by Protein L
T6 construct: also called FcgRIa; hFcgRIa

human FcγRIIa(R) = molecular target: T7, human FcγRIIa(R) (human, UniProt P12318 36-217); assay: SPR, pH 7.4, antibody captured by Protein L
T7 construct: also called FcgRIIaR; hFcgRIIa(R)
T7 chain: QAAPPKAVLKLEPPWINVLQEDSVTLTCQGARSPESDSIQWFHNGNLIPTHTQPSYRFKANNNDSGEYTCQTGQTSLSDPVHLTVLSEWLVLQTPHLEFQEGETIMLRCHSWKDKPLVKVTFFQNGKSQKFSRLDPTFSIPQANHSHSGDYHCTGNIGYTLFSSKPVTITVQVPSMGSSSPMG

human FcγRIIb = molecular target: T8, human FcγRIIb (human, UniProt P31994 43-217, limits assumed); assay: SPR, pH 7.4, antibody captured by Protein L
T8 construct: also called FcgRIIb; hFcgRIIb
T8 sequence: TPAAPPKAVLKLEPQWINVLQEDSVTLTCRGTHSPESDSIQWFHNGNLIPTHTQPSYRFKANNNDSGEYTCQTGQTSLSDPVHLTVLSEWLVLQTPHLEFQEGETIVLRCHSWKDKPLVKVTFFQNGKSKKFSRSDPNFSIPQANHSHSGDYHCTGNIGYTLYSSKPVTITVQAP

human FcγRIIIa(V) = molecular target: T9, human FcγRIIIa(V) (human, UniProt P08637 17-208, limits assumed); assay: SPR, pH 7.4, antibody captured by Protein L
T9 construct: also called hFcgRIIIa(V); FcγRIIIa allotype V158

human FcγRIIa(H) = molecular target: T10, human FcγRIIa(H) (human, UniProt P12318 36-217); assay: SPR, pH 7.4, antibody captured by Protein L
T10 construct: also called FcgRIIaH; hFcgRIIa(H)
T10 sequence: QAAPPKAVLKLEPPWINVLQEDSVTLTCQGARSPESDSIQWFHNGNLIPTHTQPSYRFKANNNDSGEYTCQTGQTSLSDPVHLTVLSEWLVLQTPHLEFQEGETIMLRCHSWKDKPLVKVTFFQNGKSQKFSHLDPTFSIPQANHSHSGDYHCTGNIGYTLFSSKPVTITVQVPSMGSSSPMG

T9 sequence (P08637 other isoform, or with tags, fused parts or gaps limits assumed): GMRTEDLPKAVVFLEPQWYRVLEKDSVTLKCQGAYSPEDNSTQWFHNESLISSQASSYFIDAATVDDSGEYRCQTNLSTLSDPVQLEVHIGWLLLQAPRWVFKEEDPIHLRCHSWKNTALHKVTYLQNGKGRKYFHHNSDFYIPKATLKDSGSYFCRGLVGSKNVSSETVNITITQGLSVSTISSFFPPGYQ
T6 sequence (P12314 16-292 limits assumed): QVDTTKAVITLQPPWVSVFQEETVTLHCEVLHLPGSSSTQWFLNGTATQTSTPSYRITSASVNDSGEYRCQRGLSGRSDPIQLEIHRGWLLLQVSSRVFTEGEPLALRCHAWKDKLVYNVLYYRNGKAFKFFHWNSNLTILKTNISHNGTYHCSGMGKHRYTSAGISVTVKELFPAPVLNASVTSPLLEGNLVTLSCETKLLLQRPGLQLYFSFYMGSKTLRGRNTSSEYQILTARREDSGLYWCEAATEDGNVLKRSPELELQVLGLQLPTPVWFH
T1 sequence (chain, as listed by the source limits assumed, chain 1 of 2): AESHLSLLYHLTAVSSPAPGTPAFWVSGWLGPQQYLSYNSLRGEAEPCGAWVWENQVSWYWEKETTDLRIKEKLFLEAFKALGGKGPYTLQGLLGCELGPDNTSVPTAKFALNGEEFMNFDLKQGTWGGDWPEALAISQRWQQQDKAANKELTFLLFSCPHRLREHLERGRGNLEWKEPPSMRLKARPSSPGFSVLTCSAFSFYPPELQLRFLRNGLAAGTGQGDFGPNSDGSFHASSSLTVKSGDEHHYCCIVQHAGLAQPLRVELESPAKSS
T1 sequence (P61769 21-119 limits assumed, chain 2 of 2): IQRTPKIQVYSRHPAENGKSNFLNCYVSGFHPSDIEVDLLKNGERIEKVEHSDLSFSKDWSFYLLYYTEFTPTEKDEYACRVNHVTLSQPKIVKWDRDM

Binder	Kd [1]	BINDING AMOUNT (RU) (mouse FcγRIV)	BINDING AMOUNT (RU) (mouse FcγRI)	BINDING AMOUNT (RU) (mouse FcγRIIb)	BINDING AMOUNT (RU) (mouse FcγRIII)	binding amount (human FcγRIa)	binding amount (human FcγRIIa(R))	binding amount (human FcγRIIb)	binding amount (human FcγRIIIa(V))	binding amount (human FcγRIIa(H))
B1	310 nM	-3.8 RU	0.6 RU	-4.5 RU	-20.3 RU	–	–	–	–	–
B2	–	–	–	–	–	19.7 RU	120 RU	31.9 RU	28.1 RU	204 RU
B3	–	–	–	–	–	38.6 RU	188 RU	55.5 RU	50.1 RU	266 RU
